Source: IntAct's records for PubMed 14685257

B1: Polyadenylate-binding protein-interacting protein 2 (Homo sapiens), Q9BPZ3 (parent)
chain: MKDPSRSSTSPSIINEDVIINGHSHEDDNPFAEYMWMENEEEFNRQIEEELWEEEFIERCFQEMLEEEEEHEWFIPARDLPQTMDQIQDQFNDLVISDGSSLEDLVVKSNLNPNAKEFVPGVKYGNI

Variants of: B1
Settings: with pabp1_human PABPC1, P11940
Sequence of pabp1_human PABPC1, P11940 (P11940 whole entry): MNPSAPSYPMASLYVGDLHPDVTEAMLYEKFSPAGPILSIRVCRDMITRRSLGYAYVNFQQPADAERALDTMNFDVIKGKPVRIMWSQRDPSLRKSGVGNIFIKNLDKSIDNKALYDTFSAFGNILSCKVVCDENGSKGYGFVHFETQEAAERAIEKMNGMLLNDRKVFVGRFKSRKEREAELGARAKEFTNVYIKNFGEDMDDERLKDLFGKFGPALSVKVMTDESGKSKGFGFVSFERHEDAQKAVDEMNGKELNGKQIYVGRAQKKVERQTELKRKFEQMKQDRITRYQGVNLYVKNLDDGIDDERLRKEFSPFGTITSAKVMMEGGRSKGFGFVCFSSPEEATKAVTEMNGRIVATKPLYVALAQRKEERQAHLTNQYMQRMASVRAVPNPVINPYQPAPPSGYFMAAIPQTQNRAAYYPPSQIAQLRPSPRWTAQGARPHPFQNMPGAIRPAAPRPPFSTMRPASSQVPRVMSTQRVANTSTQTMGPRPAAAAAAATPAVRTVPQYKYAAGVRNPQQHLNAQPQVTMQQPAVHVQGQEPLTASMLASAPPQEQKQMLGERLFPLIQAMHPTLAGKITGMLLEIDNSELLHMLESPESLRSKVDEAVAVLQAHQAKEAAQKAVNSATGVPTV

effect of a mutation on the interaction | Variant
decreasing interaction | MKDPSRSSTSPSIINEDVIINGHSHEDDNPFAEYMWMENEEEFNRQIEEELWEEEFIERCFQEMLEEEEEHEWFIPARDLPQTMDQIQDQFNDLVISDGSSLEDLVVKSNLNPNAKAFVPGVKYGNI [E117A]
decreasing interaction | MKDPSRSSTSPSIINEDVIINGHSHEDDNPFAEYMWMENEEEFNRQIEEELWEEEFIERCFQEMLEEEEEHEWFIPARDLPQTMDQIQDQFNDLVISDGSSLEDLVVKSNANPNAKEFVPGVKYGNI [L111A]
disrupting interaction | MKDPSRSSTSPSIINEDVIINGHSHEDDNPFAEYMWMENEEEFNRQIEEELWEEEFIERCFQEMLEEEEEHEWFIPARDLPQTMDQIQDQFNDLVISDGSSLEDLVVKSNLNPNAKEAVPGVKYGNI [F118A]
decreasing interaction | MKDPSRSSTSPSIINEDVIINGHSHEDDNPFAEYMWMENEEEFNRQIEEELWEEEFIERCFQEMLEEEEEHEWFIPARDLPQTMDQIQDQFNDLVISDGSSLEDLVVKSNLNPNAAEFVPGVKYGNI [K116A]
decreasing interaction | MKDPSRSSTSPSIINEDVIINGHSHEDDNPFAEYMWMENEEEFNRQIEEELWEEEFIERCFQEMLEEEEEHEWFIPARDLPQTMDQIQDQFNDLVISDGSSLEDLVVKSNLNPNLKEFVPGVKYGNI [A115L]
decreasing interaction | MKDPSRSSTSPSIINEDVIINGHSHEDDNPFAEYMWMENEEEFNRQIEEELWEEEFIERCFQEMLEEEEEHEWFIPARDLPQTMDQIQDQFNDLVISDGSSLEDLVVKSNLNANAKEFVPGVKYGNI [P113A]
decreasing interaction | MKDPSRSSTSPSIINEDVIINGHSHEDDNPFAEYMWMENEEEFNRQIEEELWEEEFIERCFQEMLEEEEEHEWFIPARDLPQTMDQIQDQFNDLVISDGSSLEDLVVKSNLNPNAKEFVAGVKYGNI [P120A]
